# Assay results published in the supplement of paper PMC9170038.
# System: MS2 coat protein
# Experiment: apparent KD of MS2 coat protein; designed switch direction (-1 OFF switch, 1 ON switch): -1; higher = weaker reporter binding
# How it was run: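 An oligonucleotide input, 200 uM small-molecule ligand, or no input was present during titration of SNAP-549-labelled MS2 coat protein, which was doubled from 0.7 or 1.5 nM to 3 µM. Designed RNA switches had been transcribed on Illumina chips by stalled E. coli RNA polymerase. Apparent KD per design is the median over clusters of curves fitted to normalised cluster fluorescence.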
# [1] = Eterna round: R95, input ligand: microRNA oligo, concentration not stated
# [2] = Eterna round: R95, input ligand: FMN 200 uM
# [3] = Eterna round: R95, input ligand: none
# [4] = input ligand: microRNA oligo, concentration not stated
Sequence,apparent KD of MS2 coat protein [1] [nM],apparent KD of MS2 coat protein [2] [nM],apparent KD of MS2 coat protein [3] [nM],apparent KD of MS2 coat protein (input ligand: FMN 200 uM) [nM],apparent KD of MS2 coat protein [4] [nM],apparent KD of MS2 coat protein (input ligand: none) [nM]
GUGUGCUGAGGAUAUACAGAGGAAGAUAAGAUAAGAUAAUCACAUGAGGAUCACCCAUGUAGAAGGCAGAGUGU [Excluse me!! 16 - Jieux - Exclusion 2] (puzzle: Exclusion 2),27,,,,,
"UAAUAUAAGCAAAGAUCCUACAUGAGGAUCACCCAUGUGCUCGUCUUAUAAAGUACUAUCACGAAAGUGAUAGUACA [Mat - Sensor v3 - turn-off var 1 - Eli Mod - D81] (puzzle: Sensor v3, turn-off variant 1)",19.8,116,170,,,
"GCACGAAGUGUAGGAUAUCUGUGCGAUUAGCUCAGAGAAGGACACAUGAGGAUCACCCAUGUGUUCCGCGGAAGCAAUACGUGC [Eli exng1 - 057] (Eterna round: R96, puzzle: Exclusion NG 1)",,,,10.7,9.73,13.3
"UUGCCACAUGAGGAUCACCCAUGUGAGGAUAUGGCCUGUUUGGAGUGUGCUGGUUCUGUCAGAAGGCGCGUGGG [salish99_ex1_r4_033] (Eterna round: R97, puzzle: Exclusion 1)",,,,49.5,,33.6
"AAUUAUUUUUGAGGAUAUGGUAGUGAAACACUACCAGAAGGCGGAAUAAACAUGAGGAUCACCCAUGUGAGCCUGAUGCUUAUG [Ex NG1 #46] (Eterna round: R96, puzzle: Exclusion NG 1)",,,,,17.9,
"GCCCGGGCAGGAUAUACAAGCUAGUGCUGAAAAGUGCUAGUACAUGAGGAUCACCCAUGUAGAAGGGCCCGGGC [-37.6, -35.7 kcal, A 28% 2bis] (Eterna round: R97, puzzle: Exclusion 2)",,,,30.5,,18.1
"UUAUACAAGCAAAGAUCCCACAUGAGGAUCACCCAUGUGCUCGUCUUAUAAGGUACUGUGACGAUAGUCACGGUACC [Mat - Sensor, turn-off var - Eli Mod - D102] (Eterna round: R97, puzzle: Sensor, turn-off variant 1)",,,,38.3,,49.9
"GGUUGUUUUUUCCUUUCUUACAUGAGGAUCACCCAUGUUUCUUGUCGUGCUCGCGUUGCUCGUCUGUCUGUCUGUUG [salish99_TOv1_r3_074] (puzzle: Sensor v3, turn-off variant 1)",36.6,49.9,55.6,,,
"AUCAGCUCGUGAGGAUAUAUUAACAUGAGGAUCACCCAUGUAAGAUCAGGCUUCGGCCAAUGUUAAUAGAAGGCACGAGCUGAU [ENG2/12-A2] (Eterna round: R96, puzzle: Exclusion NG 2)",,,,239,56.3,170
"AUAUUAGCAGGAUAUAUCCGGGAUAACAUGAGGAUCACCCAUGUGACCGCUUGAUAUCCUAUAGAAGGGCUUUAUA [Mod of ViennaUCT 29 - Jieux - Exclusion 5] (Eterna round: R97, puzzle: Exclusion 5)",,,,35.3,,20.6
"AGCUAGUGAGGAUAUACAAGAAUAUAAACGAACAUAAAGGGACAUGAGGAUCACCCAUGUAGAAGGCACUAGCA [Diamond 73] (Eterna round: R96, puzzle: Exclusion 2)",,,,,29.3,
"AUUAAACAUGUAGGAUAUGCGUGGCGAAGCUAUGCAGAAGGACAUGAGGAUCACCCAUGUAAGAGCGUCUGCGUACAGAUGCAA [Mat - Exclusion NG 1 - Mod of JL - D85] (Eterna round: R96, puzzle: Exclusion NG 1)",,,,563,36.6,61.5
"UACAUGAGGAUCACCCAUGUUUUGUCGUGUAUGGUACCCAUCUAGGAUAUCGUGUUAUUUAACCACGAGAAGGAGAGUAUCAAU [MOD4 Solution 21 by JMF] (Eterna round: R96, puzzle: Exclusion NG 3)",,,,22.4,13,21.8
UACUACGCAGGAUAUACAUGAGGAUCACCCAUGUGUCUGCGAUAGGCACGUGAUAUCCGUAGAAGGGUGUAGAU [Exclusion 3 - Oddities v.1] (puzzle: Exclusion 3),30.7,,,,,
UUAUUAAGUGUGAGGAUAUGCUGGUCCUUGGAUCAGCAGAAGGCACAUGAGGAUCACCCAUGUACUUUAUAAAU [JL bmx4 3.05] (puzzle: Brourd's mod of Exclusion 4),14.6,,,,,
CUUUUGUGAGGAUAUCAGUAGUAAAUAUAUAAAAUUACUACUGAGAAGGCACAUGAGGAUCACCCAUGUUCCUC [salish99_ex3_r3_079] (puzzle: Exclusion 4),38.8,,,,,
AGACAGUCAGGAUAUACAUGAGGAUCACCCAUGUUAAGAAGAGAAAGGGCAGGAAGAGGUAGAAGGGACAAGAA [JR_Exclu3_Sub033] (puzzle: Exclusion 3),23.6,21.1,29.5,,,

Sequence,apparent KD of MS2 coat protein [1] [nM],apparent KD of MS2 coat protein [2] [nM],apparent KD of MS2 coat protein [3] [nM],apparent KD of MS2 coat protein (input ligand: FMN 200 uM) [nM],apparent KD of MS2 coat protein [4] [nM],apparent KD of MS2 coat protein (input ligand: none) [nM]
CUUAGACAUGAGGAUCACCCAUGUGAGGAUAUGAAAUUAAUUAAUUAUGAAGUAUGAAUCAGAAGGCACAUAUG [Mat - Mod of Hyphema D35] (puzzle: Exclusion 1),78.6,71.7,118,,,
"UUUUUUUUGUUUUUUGUUUACAUGAGGAUCACCCAUGUGACGAGUUUAUGGGUGAACAAGCUUUUUGCUCGUCUUAU [Sensor v3 - Turn-off variant 1 - 5] (puzzle: Sensor v3, turn-off variant 1)",17.8,52.4,140,,,
"UAACUGUGAGGAUAUUCGUAGUACACGGAGACGUGUAUUACGGAGAAGGCACAUGAGGAUCACCCAUGUUCCUU [Default title] (Eterna round: R97, puzzle: Exclusion 4)",,,,75.6,,17.4
"AGUACUAACACGUGUGUGUUAGUACAAUAAGCUUGUGAAACAUGAGGAUCACCCAUGUCCUCAUAAGCUCGUCUUAU [salish99_TOv2_r3_074] (Eterna round: R96, puzzle: Sensor v3, turn-off variant 2)",,,,14.9,514,17.1
"CCACUGUCAGGAUAUCGUGCAUACAACGAAAGUUCUAUGUGCGAGAAGGGACAUGAGGAUCACCCAUGUAAACG [Omei Ex4 A28] (Eterna round: R97, puzzle: Exclusion 4)",,,,582,,138
GCAGGAUAAGUGAGGAUAUACCUCUGGAUACAGAGGUAGAAGGCACAUGAGGAUCACCCAUGUUACUCACCUGC [Fiskers BMX 4 - 76] (puzzle: Brourd's mod of Exclusion 4),10.9,,,,,
GAUAAGGUAGGAUAUACGAAGAAAGAGGGUAGUAAUAAUACACAUGAGGAUCACCCAUGUAGAAGGACCAAUAG [Mat - Exclusion 2 - Mod of my Tesla design - D43] (puzzle: Exclusion 2),26,39.1,26.4,,,
"UCAUAUAACGAGGAUAUGCGGGCCGUUUUCCCAGCAGAAGGCGUUACAUGAGGAUCACCCAUGUACCCGGGUAA [EX6 A.29] (Eterna round: R97, puzzle: Exclusion 6)",,,,18.1,,515
"CGGUCACUAGGAUAUCAGGAAAACUACAUGAGGAUCACCCAUGUACUGAGUGUAGGAGACUGAGAAGGAGUUCUUA [EX5 C.4] (Eterna round: R97, puzzle: Exclusion 5)",,,,31.5,,22.3
"UAUUCACAAGCGAGAUCCCACAUGAGGAUCACCCAUGUGCUCGUCUUAUAAGGUACUGUGACGAUAGUCACGGUACC [Mat - Sensor, turn-off var - Eli Mod - D86] (Eterna round: R97, puzzle: Sensor, turn-off variant 1)",,,,17.4,,15
GAGGUACAUGAGGAUCACCCAUGUGAGGAUAUAGUGGAAGAUUGAGAGAGGUGGAGGACUAGAAGGCACAGUGG [JR_Exclu1_Sub039] (puzzle: Exclusion 1),48.1,,,,,
"UCAUGUCCAGAGGAUAUGUAGCGGGAGACCGCAACAGAAGGCUGGACAUGAGGAUCACCCAUGUGCGCCUUCAA [jl-ex3-4.28 ViennaUCT mod] (Eterna round: R97, puzzle: Exclusion 6)",,,,43,,352
GCGAUAAACGAGGAUAUCGUAUCGGAAACGAUACGAGAAGGUGUAACAUGAGGAUCACCCAUGUUCCUCAACGC [Mat - Exclusion 6 - Eli Mod - D65] (puzzle: Exclusion 6),36.3,,,,,
"UAGGUGUAGUUAGGAUAUCGUUGCGAUUAGCUACGAGAAGGAACACAUGAGGAUCACCCAUGUCUACUCAAGAAACGAAAGGAA [6th something] (Eterna round: R96, puzzle: Exclusion NG 1)",,,,29,22.1,24.9
"AGUUGGCGAGGAUAUACAUGAGGAUCACCCAUGUGAGAGAUACUAGUGAGGUCGAUUAGGAGAAGGCGCUGACA [Mat X3R4 m20] (Eterna round: R97, puzzle: Exclusion 3)",,,,63.1,,48
"CAUGUCCAACGAGGAUAUGGGAAAGGAAGUGUACCAGAAGGCGUACGGACAUGAGGAUCACCCAUGUCGCGCGGUGCGAUGUGG [MOD2 Nando EXNG 1.1] (Eterna round: R96, puzzle: Exclusion NG 1)",,,,112,39.1,98.9
"CAGUACUGAGGAUAUACAUGAGGAUCACCCAUGUGUUCCGGCUAGGAUACUAGCAAAGGAAGAAGGCAGUACUG [Mat - Exclusion 3 - Eli Mod - D23] (Eterna round: R97, puzzle: Exclusion 3)",,,,22.7,,17.1
